Biological target: GFP-tagged SARS-CoV N protein, full length (SARS-CoV, UniProt P59595 1-422)
Experiment: co-immunoprecipitation on Flag-tagged MASP-2 region beads, anti-GFP immunoblot

Sequence of GFP-tagged SARS-CoV N protein, full length (P59595 whole entry): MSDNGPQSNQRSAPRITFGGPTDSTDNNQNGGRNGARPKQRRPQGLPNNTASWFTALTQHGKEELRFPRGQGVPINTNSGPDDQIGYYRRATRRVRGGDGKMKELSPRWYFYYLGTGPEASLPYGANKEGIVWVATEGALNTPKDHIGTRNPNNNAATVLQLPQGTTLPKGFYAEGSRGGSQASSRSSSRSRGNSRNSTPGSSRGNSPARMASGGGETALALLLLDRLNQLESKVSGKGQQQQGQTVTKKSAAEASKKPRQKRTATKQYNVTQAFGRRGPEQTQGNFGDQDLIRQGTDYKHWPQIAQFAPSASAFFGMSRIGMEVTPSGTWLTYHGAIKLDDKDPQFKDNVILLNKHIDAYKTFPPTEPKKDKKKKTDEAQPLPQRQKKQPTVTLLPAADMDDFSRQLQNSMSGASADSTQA

B1: Flag-tagged MASP-2 N-terminal CUB1-EGF-CUB2 region (other, UniProt O00187 16-296, looked up, not shown: small tags and cut ends)
chain: TPLGPKWPEPVFGRLASPGFPGEYANDQERRWTLTAPPGYRLRLYFTHFDLELSHLCEYDFVKLSSGAKVLATLCGQESTDTERAPGKDTFYSLGSSLDITFRSDYSNEKPFTGFEAFYAAEDIDECQVAPGEAPTCDHHCHNHLGGFYCSCRAGYVLHRNKRTCSALCSGQVFTQRSGELSSPEYPRPYPKLSSCTYSISLEEGFSVILDFVESFDVETHPETLCPYDFLKIQTDREEHGPFCGKTLPHRIETKSNTVTITFVTDESGDHTGWKIHYTST
notes: domain: CUB1-EGF-CUB2
B1: no binding.
